Columns and labels:
[1] = target: human FcγRIIIaV extracellular domain, C-terminal His-tag (human) (UniProt P08637); assay: SPR 25C; FcgR bound per captured antibody, relative to parent B3
[2] = target: human FcγRIIaR extracellular domain, C-terminal His-tag (human) (UniProt P12318); assay: as above
Chain of human FcγRIIaR extracellular domain, C-terminal His-tag (human) (P12318 34-217 H167R): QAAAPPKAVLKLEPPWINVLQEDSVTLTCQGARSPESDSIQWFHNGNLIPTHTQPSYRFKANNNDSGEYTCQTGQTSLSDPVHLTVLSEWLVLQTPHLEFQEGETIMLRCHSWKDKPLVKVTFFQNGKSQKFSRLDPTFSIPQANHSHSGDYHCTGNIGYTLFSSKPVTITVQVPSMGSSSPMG

Binding to human FcgRs (parent B3 = 100) (parent B3 = 100) [1]: 2 | Binding to human FcgRs (parent B3 = 100) (parent B3 = 100) [2]: 8
Substance: GpH7-B3 variant V266F/GpL16-k0 (antibody)

— patent US20200317768A1
